The source of these data is patent publication US11781164B2, “Demethylation of reticuline and derivatives thereof with fungal cytochrome P450” (priority 2017, dated 2023).

First the molecules themselves.
B1: CYPDN21: cytochrome P450 homolog XM_018432503 from Phycomyces blakesleeanus, codon-optimized (protein, listed as Phycomyces biakesleeanus)
chain: MLAKKVNGYAGFTLDAIQTIYFNRAIKLVRPPKALSHIPHVPYFSYMSSLIKKENTISRNKRFANKLFEDPESNGLYLRPNVKGWEVVVTRPEDAKKLLFKSDIFPKADFTSGIDGTILSKFSRGPNLLFTTGAHWKAQRMVANPAFHRSAPVKLFGELTQKLFRVMDNRANKTVDITRLMEAWALDAIGLAGFDFDFNAIENPNSSWVRIYERVDKALVHPFYSFFPKADKYLLWVLPNRKQAHTDLDIFLKMIDNVIIAKKKALHENKSNKHLENSEKDLLTLMLESEAKGSTLSAKELRSNMCVFFAAGHETTANSLAYAIYFMAVNPDVQCKAREEAFKVLGDAQEDIMPTIEQTKSMDYINAVIKETLRSHSPALGTFARKATKDTELGGVLIPKDTMISMDIFNLHHNPNVWNNPDEFDPSRFLPGGEAEKQINNGFSWIPFGTGARQCIGMNFSLIEQRVMLSMMLRKFAWSLPEDSIHKDYLHTTNLVISSAKDLNINFEKLY
B2: CYPDN28: cytochrome P450 homolog A0A1X2HYB6 from Absidia repens, codon-optimized (protein, listed as Absidia repens)
chain: MLTQYIHQFFNNFDQKKTMDQLQSVASSKDGVIGIATALILISGVAAYKSSTVERGCPQVPCGTFSFGSTSEYRENPVAFVKKWEEKLGPVFGAQLFGQYATIVSGPQVREIFSNENFSFMAGIQRDFDTYLLANGGSIHDLPPHVVSGGIKKNLSPKLPFYTSRVIEHLKIGLYEQCGVVPDEGKEFDHVYPFVQHMVAKASASVFVGPELAKDLNLVDSFKNMVLEVGSDMGPKPYLEHFPHLMRLRMWYIGKTSTNVKRHRDQLFAALVPQIDSRLKAMKEKDSNWDRPNDFLQDILETDDCPPHMDIYSYCVDWMTQIIFAALHTTSENGTIVLYRLLDNPKVLEELYEEQNAVLEEAGYDDTVGPEVFTREILNKFVKMDSVIRESCRLRNDYIGLPHTNVGKKTIVLSGGAMIRPGENAFVNFYSNHRDEKLQKSGMNANNFEPYRFVDQGKNSTKIGDDFMFFGMFKHACPGRWFAIQEIKTILAMLIRSYKMSAIDSVVFPTSDYTRIPTGRFKIVPRK
B3: CYPDN24: cytochrome P450 homolog A0A077WFB8 from Lichtheimia ramosa, codon-optimized (protein, listed as Lichtheimia ramosa)
chain: MDNQTWSSVPGASFWKGKLVSGHYVREVFLNNDFDFLKGTGKRFDTLLLTDTTTQDVDIEVFRTVVMKHLTKEMKAYTPRVVQHLTAGGDEKLGDAKEPQELVHLFPLLQHMVAKASASIFVGTELASDDDVVETCKNIAIDIGSELGPGSYIMDAFPSLARLRMWYIGKFGKAINKHRQHLLRALGPVIDKRLAAAEKGGDWDRPQDILQDIIETINLTLDNPKRHILPVKWLLALFFASIHTTSENSTIVLYRIMQNPEIIDVLLEEQNQVLEKHYGSNIDYSDTTKLFTGEVIKELVKLDSLCREAMRARNSYLELPHTYVGKSRITLSCGAIIEPGHDVLINMWGNHRDAKIQRDTIGDHHDFKPFRFVGLDRQSTKIGDDFLMFGQGRHACPGRWFAIQEIKTIVSVLIRYYKLTPNGPITFPTHPRMPMPMGQVIIQRRQ
B4: CYPDN22: cytochrome P450 homolog XM_023609077 from Rhizopus microsporus, codon-optimized (protein, listed as Rhizopus microsporus)
chain: MAISFLYREGPAERLKRLKLPAMRKGNGFYLSRVPFCWTVYVANPIAAKQLLLKAENFPKSHFLMVGKDSPFVQFLGPDNVVNSNGENWKKQRKVMNPAFHRSMPVKTIAGVVLTLFAVIDKYKGKVPVTSTMQEFTLDVLGLAIFNFDFGSLKGDAKKWRAEYKLVMLFDPVTNVFTGFDFLLRYIYPKRIKGANAVNNLNKLFDQLVKQKRLEVQSGVHANKPQNEKDLLTLMLEAEQRGEAMTTDMEMRHNVAVFFLAGHESTAHVLSFTLYFLAKNKYVQQKLREEVSRVMGRKSVDVAPTLEELRQMEYLYAVIKESLRLCSIFDVLILRDAVEDMYLDDTFIPKGTRITIDVSAIQRDPKVWNNPDDFIPERFMEGGEAEGHEGMTWLPFGGGARQCIGMNFSLTEQKVALAMLVQRYDIDVPKDSIHYEDIAYERPFYLAPQSLELTFTKLH
B5: CYPDN27: cytochrome P450 homolog A0A077WLY1 from Lichtheimia ramosa, codon-optimized (protein, listed as Licthheimia ramosa)
chain: MPSLIPKNASDAIEQYISRLKTMDRRHMGIIAGSVAVVSLYTFYRHLTRSRDDIPLVPYTWPLIGSTPSFNRDPVAFVEKWSQEYGPVFRAHLQGRIQTIIAAEYVRDIFMNSDFDFLFAVNKRFDPHLLADIDDNTFTTEMLRKVVMKLTTQLKSYTPRAVEFLDVGRNEFLSHFPAGPVHLPHLYPLIQHMVGKASAAIFAGTKLASNPEVVESFKNITLEVGAEIAVDSVFLERYWGLNRFRMWLMGKFSKSMKRHHRVLKDALRPEIKDRIEASSDPSRERPDDMLQIIIESYYTERRGESVDDLTEDLVKWLISLIFAAIHTTSENSTVVLYRILSKPDVVEELLEEQREVLVRHGISPDEKDPSKMFTGAVIKDLVKLDSACREGMRMRNDYLTLGHTYLGKKPITLSCGAVIKPGEDVIINTWYNHRNNKIQKIQGDDYSNYNPFRFVGSDRQAARIGDDFLIFGEGKHACPGRWFALQEMKTIISFLIRDYKMAPEGPITFPKNPKMTLPMGQVILESRH
B6: CYPDN18: cytochrome P450 homolog A0A0C9MNJ6 from Mucor ambiguus, codon-optimized (protein, listed as Mucor ambiguus)
chain: MYSTASYNQTLERVVSVVRKNKTSYIGMAILCVVLQQIYSSFAVPPKHLRRFPKVSFMELMKSFYKKESVMNRNKRLVTPLTNAGHGFYISRIPLDWTIYVTDPIAAKTLLLKTDNFPKSHAIFGALGESSPVVKFMGNENVAVSNDILWRKQRKIMNPAFHRSQPVKVFGGVMPDLFALIDQDPEHVFITPKIKSFALDALGLSAFGFDFQSLKNDPEGWTSKYNTVVSSLFNPFVNLFAKCDFLIKYISAERRRVIKVTDEFNAMLSNLADKRRQEIMNGEKKNIAENEKDLLTLMIEADTREGVETTTTELRHNMAIFFLAGHDTTANTLALCLYQLAKHKHVQKKARQEVLDILGDDPWDVAPSLEDLKKLNYLNMVIKENLRRNGPVDNLMSRDTQQDINLNGTFIPKGSKVVINVASIHLNPKIWHNPESFIPERFEQGGEFDSHDGFTWLPFSNGSRQCLGLNFSLTEQRVALCMLLKRYEIDIPKDSIHYDEIVFDKAFTFAPQSLELSFKKRY
B7: CYPDN20: cytochrome P450 homolog A0A163A6R1 from Phycomyces blakesleeanus, codon-optimized (protein, listed as Phycomyces biakesleeanus)
chain: MCLFFCKKVYDFTAVPYELKKFPNIPFFYFVKSILSVESVENRTKRLVLPLLHKNNGFYVSRFPFYWTVFTTDPDAVQYLLMKGEIFPKDTRFTSAVSKDSLIIRLFGSSNVAFISGEPLKHQCRTMNPAFRRTAPVNIFGRLIPDMFRLIDKSDGDILIVNLLQRMTFDALGKALFGFDFKTMKEDNSAWMTAYSDAMSGVTAPVLNIIPSLEYILRYFYPNYTKAKNGVDKLNRLILELVNKKKQELEESMPQSCSNNNNGDTDGDAYDQEKDLLTLILEAEMKDNKSSGSDDLRANMATFIMAGHETTASSVSFCIYHMVINKDVRDKARREALDILGYDDFISPPTFDECKRVNYINMVVKEALRLCTPGGLLFERIATEDVFLSGVFIPKGTRISVDIEALHKNPAIWKNPSVFDPERFSKGGEHEQHRGITWAPFSDGNRKCLGINFSMTEQQVILLMLLKHYEWDLSENSIHNNGMVYDNVFSFAPKTLSIKFHKRH

For the data set, the system named is thebaine. The data set is described as follows: Demethylation of thebaine by new cytochrome P450 fungal and plant homologs co-expressed with CPRs in S. cerevisiae. Conditions: 0.5 mM thebaine, SC or DELFT media pH 7, 72 h, 30° C.; co-expressed with Cel_CPR_co, Tp_CPR_5866, Tp_CPR_DN10898 or POR1.
As to B1, the Northebaine production entry was “+”.

Turning to B2, the Northebaine production result is “+”.

Regarding B3, the Northebaine production entry is on record as “+”.

In the case of B4, the Northebaine production entry is “+”.

Regarding B5, the Northebaine production result is “+”.

As for B6, the Northebaine production entry is listed as “+”.

As for B7, the Northebaine production entry is reported as “+”.
